Paper PMC7039645 (mAbs, 2020)
Where a chain is given by its changes, count along the chain named.

B1: F9.13.7 (antibody, V domains shown)
VH: QVQLQQPGAELVKPGASVKLSCKASGYTFTSYWMHWVKQGPGQGLEWIGEIDPSDSYPNYNEKFKGKATLTVDKSSSTAYMQLSSLTSEDSAVYYCASLYYYGTSYGVLDYWGQGTSVTVSS
VL: DIQMTQTTSSLSASLGDRVTISCRASQDISNYLNWYQKKPDGTVKLLIYYTSRLHSGVPSRFSGSGSGTDYSLTIRNLEQEDIATYFCQQGYTLPYTFGGGTKLEIK
B2: hu4D5-g3.1 Fab (Fab, V domains shown)
VH: EVQLVESGGGLVQPGGSLRLSCAASGFNIKDTYIHWVRQAPGKGLEWVARIYPTNGYTRYADSVKGRFTISADTSKNTAYLQMNSLRAEDTAVYYCARGHYSSGHPFDYWGQGTLVTVSS
VL: not shown
B3: hu4D5-g3.2 Fab (Fab, V domains shown)
VH: B2 VH with H100I, Y101G, S102N, S103G, G104A, H105E, P106G, F107M
VL: not shown
B4: hu4D5-g2.1 Fab (Fab, V domains shown)
VH: B2 VH with G99S, Y101K, S102N, S103V, G104M, H105G, P106L, F107V
VL: not shown
B5: hu4D5-g2.2 Fab (Fab, V domains shown)
VH: B2 VH with G99S, Y101A, S102L, S103V, G104Y, H105G, P106L, F107I
VL: not shown
B6: hu2C4-g3.1 IgG1 (antibody, V domains shown)
VH: EVQLVESGGGLVQPGGSLRLSCAASGFTFTDYTMDWVRQAPGKGLEWVADVNPNSGGSIYNQRFKGRFTLSVDRSKNTLYLQMNSLRAEDTAVYYCARLMSYGYFDYWGQGTLVTVSS
VL: DIQMTQSPSSLSASVGDRVTITCKASQDVSIGVAWYQQKPGKAPKLLIYSASYRYTGVPSRFSGSGSGTDFTLTISSLQPEDFATYYCQQYYIYPYTFGQGTKVEIK
B7: hu2C4-g2.2 IgG1 (antibody, V domains shown)
VH: EVQLVESGGGLVQPGGSLRLSCAASGFTFTDYTMDWVRQAPGKGLEWVADVNPNSGGSIYNQRFKGRFTLSVDRSKNTLYLQMNSLRAEDTAVYYCARSSRPPWFFDYWGQGTLVTVSS
VL: B6 VL
B8: hu2C4-g1.2 IgG1 (antibody, V domains shown)
VH: B7 VH with S99A, S100I, R101T, P102N, P103E, W104V, F105L, F106L
VL: B6 VL
B9: hu2C4-g1.1 IgG1 (antibody, V domains shown)
VH: B7 VH with S99A, S100I, R101A, P102G, P103G, W104V, F105L, F106L
VL: B6 VL
B10: hu2C4-g2.1 IgG1 (antibody, V domains shown)
VH: B7 VH with R101T, W104F, F106M
VL: B6 VL
B11: hu2C4-g3.2 IgG1 (antibody, V domains shown)
VH: B6 VH with M100L, S101A, F105L
VL: B6 VL

Each binder was assayed against hen egg-white lysozyme (chicken (hen egg-white), UniProt P00698) (assay: SPR).

binding result | Binder
binds | B1

Each binder was assayed against T1, human epidermal growth factor receptor 2 (Homo sapiens, UniProt P04626) (assay: SPR).

Kd | koff | kon | Binder
0.39 nM | 0.00032 s⁻¹ | 960000 M⁻¹ s⁻¹ | B2
1.8 nM | 0.0011 s⁻¹ | 660000 M⁻¹ s⁻¹ | B3
0.27 nM | 0.00035 s⁻¹ | 1.6e+06 M⁻¹ s⁻¹ | B4
0.33 nM | 0.00043 s⁻¹ | 1.8e+06 M⁻¹ s⁻¹ | B5

Target: T1, human epidermal growth factor receptor 2
Experiment: SPR
Remark: another data set of the same source

Kd | koff | kon | Binder
6.4 nM | 0.0004 s⁻¹ | 63000 M⁻¹ s⁻¹ | B6
23 nM | 0.0015 s⁻¹ | 65000 M⁻¹ s⁻¹ | B7
28 nM | 0.0014 s⁻¹ | 49000 M⁻¹ s⁻¹ | B8
25 nM | 0.0012 s⁻¹ | 48000 M⁻¹ s⁻¹ | B9
25 nM | 0.00096 s⁻¹ | 39000 M⁻¹ s⁻¹ | B10
9.9 nM | 0.00057 s⁻¹ | 58000 M⁻¹ s⁻¹ | B11
